Percent reduction of bound B27 Flu NP heterotrimer tetramer over 1 hour and Kd data for two substances are collected here from article PMC3622243.

pKd: −log10 of the molar value.

The target of assay [1] is LILRB2 on transduced Baf3 cells (UniProt Q8N423). The assay can be described thus: flow cytometry on cells. A general note: In flow cytometry, cells or beads pass a laser one at a time.
For assay [2], the target named is HLA-B27 homodimer (B27 H chain dimer, β2m-free) (human). The experiment in a line: SPR. Background: SPR reads the build-up and loss of mass on a sensor chip optically.

On to “HLA-B27 homodimer (B27 H chain dimer, β2m-free) (complex)”, for which the percent reduction of bound B27 Flu NP heterotrimer tetramer over 1 hour in assay [1] was found to be 43%. Broadly, the pKd is −log10 of the Kd, conventionally taken in molar units. Low readings indicate a large Kd, high ones a small Kd. In turn, “LILRB2 incorporating the two immunoglobulin-like domains D1 and D2 (domain or fragment)” showed a pKd in assay [2] of 5.60.
